Reference: patent US20140294834A1

Target: his tagged cMET (UniProt P08581)
Experiment: BLI (Fortebio Octet), antibody loaded on Protein A tips, his tagged cMET in solution, 1:1 fit

Q: Which Kd does the source give for Onartuzumab (antibody) here?
A: 1.2 nM
